What all share (experiment): EMSA
Details in all cases: EMSA: 10 mM Tris-HCl pH 8.0, 60 mM NaCl, 10 mM KCl, 5 mM MgCl2, 1 mM DTT, 0.05% NP40, 10% glycerol, footprint: 5 mM Tris-HCl pH 8.0, 60 mM NaCl, 5 mM KCl
(In EMSA bound probe runs differently from free probe, usually more slowly.)

For data set [1], the target named is T1, HspR (Campylobacter jejuni NCTC 11168) (UniProt Q0P926).
T1 sequence: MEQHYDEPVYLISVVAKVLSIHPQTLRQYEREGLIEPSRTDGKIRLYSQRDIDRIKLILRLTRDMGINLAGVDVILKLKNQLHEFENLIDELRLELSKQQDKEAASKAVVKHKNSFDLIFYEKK

Data set [2] has as its target T2, HrcA;HspR (Campylobacter jejuni NCTC 11168;Campylobacter jejuni NCTC 11168) (UniProt Q9PPG2+Q0P926).
T2 sequence 1: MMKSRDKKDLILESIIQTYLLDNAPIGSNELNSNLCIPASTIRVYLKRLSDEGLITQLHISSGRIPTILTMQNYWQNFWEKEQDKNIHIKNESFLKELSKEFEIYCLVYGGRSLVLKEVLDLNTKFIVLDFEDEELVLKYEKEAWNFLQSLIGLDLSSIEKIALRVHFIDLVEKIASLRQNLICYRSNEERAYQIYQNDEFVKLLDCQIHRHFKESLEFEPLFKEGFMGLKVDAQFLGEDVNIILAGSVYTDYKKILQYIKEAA
T2 sequence 2: T1 sequence

Data set [3] has as its target T3, HrcA (Campylobacter jejuni NCTC 11168) (UniProt Q9PPG2).
T3 sequence: T2 sequence 1

On to “GGATCCCTTGCAGCAAATAAAGCACTTGCTAAACTTAATGATAAAAAAATCTTTTTCATTTCATTTCCTTTTGTTCTTAAAGATAAATTATCTCGTAAAATATTTTACTGTCTTCATAGTATAAAACCGAAAATTTACAAAATTGTAAATAAAACCTTGAGTGATAAAAATTTATAAAACTTGATTGACTTAGGCTAAAGTTTATGTTATAATTTAATCCTCTATATAATCAAGTAAAAATTTTTAAGGAAATATAACATGAATAGTTTATACGAAACTCTTGGAGTTAGCCTCGAG (double strand) [Pcbp promoter probe (EMSA)]”, for which, in data set [1], the binding entry is reported as “binds”.
With “GGATCCGCACAACAACAAAAGCTACAATGCCATAAAAAATCTTTTTCATTTTTATCCTTTAGTTTATTTTATAAAATAACTTTAGTCTATAAAACTAAACTTTTATAAATATTTTAATTTAAAGTATTGACAAAATTCATTTTTTATAGTATGATATTATCACTCTAAATTAAAGAGTGCTAAAATCAATATTTTTAAGGATGGACAAAAATGAATTTTCAACCTTTAGGAAAGCGTGTTCTAGTTAAACGCGCTCGAG (double strand) [Pgro promoter probe (EMSA)]”, the binding result in data set [2], in data set [1] and in data set [3] was “binds” throughout.

The values are drawn from publication PMC8533110.
